Values quoted from earlier work in publication PMC8821138 (Food chemistry, 2021).

Conditions: ref Parisi et al., 2020; Yagami et al., 2000

**Q.** Which “Resistance in in vitro gastrointestinal digestions” value does the source give for “NaD1: defensin, literature example of digestion resistance (RECKTESNTFPGICITKPPCRKACISEKFTDGHCSKILRRCLCTKPC; UniProt Q8GTM0 26-72, looked up)” here?
**A.** demonstrated resistance
